These results are taken from the supplement of paper PMC10724198.

± gives the standard deviation of the averaged measurements.
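Also: PSI is a weighted mean of sequencing reads over stability bins, variants kept only with over 10 reads, mCherry proximal and sfGFP distal, peptide attached via GGGS linker.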

The test system of the series is Saccharomyces cerevisiae. The series can be described thus: protein stability index of tFT-peptide fusion (C-terminal peptide) (PSI (0-1 scale)); higher = more stable (slower turnover). The note with it: genetic background: wild type; temperature: 30 C. The protocol:
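Multiplexed protein stability (MPS) profiling in S. cerevisiae. Random 12-aa peptides (tFT-X12 library) are fused to the C-terminus of a sfGFP-mCherry tandem fluorescent timer, after mCherry and a GGGS linker. Cells are FACS-sorted into 8 mCherry/sfGFP bins and deep-sequenced. The protein stability index (PSI) is the read-weighted bin average, scaled from 0 (unstable) to 1 (stable). Only peptides with >10 reads are reported; cells were grown at 30 °C in SC-His with glucose.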
Sequence DFSLQILALCYF displayed a protein stability index of 0.558 ± 0.018.

In turn, DFVRVVGDLRWE displayed a protein stability index of 0.587 ± 0.041.

For the sequence DGAVCSAFASIF, the protein stability index is 0.701 ± 0.0089.

DGGGGGRAPRVR registered a protein stability index of 0.726 ± 0.1.

For DGGIVTVSLGWC, the protein stability index turned out to be 0.662 ± 0.064.

DGKNQGKAEGTK returned a protein stability index of 0.693 ± 0.041.

On to DGSPLGSIQQAP, for which the protein stability index stood at 0.673 ± 0.013.

DGTRVSFLGHKG displayed a protein stability index of 0.665 ± 0.053.

DGYYRIVRPEAI: the protein stability index turned out to be 0.626 ± 0.018.

As to DHPFFCWDGVVK, the protein stability index came to 0.687 ± 0.069.

Sequence DHSWPSTDRVLL showed a protein stability index of 0.676 ± 0.0096.

Consider DHVSTVEQKLFF, for which the protein stability index turned out to be 0.701 ± 0.031.

Regarding DIISSKENWVEI, the protein stability index was 0.68 ± 0.059.

In the case of DINHTSKKKIYI, the protein stability index worked out at 0.663 ± 0.015.

As for DINNDQKCTLMK, the protein stability index was found to be 0.71 ± 0.013.

Consider DIRRWQWWFMVR, for which the protein stability index came to 0.613 ± 0.082.

Turning to DKCRWWRHGVWR, the protein stability index was found to be 0.687 ± 0.019.

On to DKDSTSRYSKPW, for which the protein stability index amounted to 0.725 ± 0.022.

DKFEEENIKKKK gave a protein stability index of 0.74 ± 0.026.

As to DKGIHKREKFFT, the protein stability index came to 0.734 ± 0.0054.

Sequence DKNVREGDRETR gave a protein stability index of 0.685 ± 0.017.

Consider DKRHQSALSFFI, for which the protein stability index worked out at 0.736 ± 0.0089.

DKYFRYKEERTY: the protein stability index came to 0.766 ± 0.16.

With DLERRKGTGVWR, the protein stability index amounted to 0.6366 ± 0.0051.

Regarding DLGARWLFLLQT, the protein stability index was found to be 0.622 ± 0.012.

With DLLWASLCLRSY, the protein stability index came out at 0.679 ± 0.021.

DLPATSAETAPK showed a protein stability index of 0.699 ± 0.058.

DLPRCTLSVEDT showed a protein stability index of 0.703 ± 0.0078.

DLPVIGHRLPLF came in with a protein stability index of 0.684 ± 0.012.

Regarding DLPVPRPGTLQV, the protein stability index is 0.655 ± 0.045.

In the case of DLRFLQFGFIPW, the protein stability index is 0.752 ± 0.043.

In turn, DLSMIPEWICIV registered a protein stability index of 0.547 ± 0.054.

As to DLSSFGRLGCQG, the protein stability index is 0.871 ± 0.037.

On to DMHTPATDSPLP, for which the protein stability index was 0.783 ± 0.016.

Consider DMVSLGLAILIT, for which the protein stability index was determined as 0.492 ± 0.021.

As for DMWSMFSFLYYV, the protein stability index stood at 0.507 ± 0.012.

DNKEIEQTIRNK yielded a protein stability index of 0.6304 ± 0.0041.

Regarding DPGKWMRCHICE, the protein stability index was determined as 0.752 ± 0.035.

In turn, DPPPPSPPASMP gave a protein stability index of 0.663 ± 0.036.

As for DPQQRSNPKPII, the protein stability index was 0.661 ± 0.032.

DPRRNGAPLRSI showed a protein stability index of 0.676 ± 0.039.

As to DPTPLALSPDHP, the protein stability index came out at 0.63 ± 0.057.

As for DPYYGFRMRIPF, the protein stability index turned out to be 0.691 ± 0.026.

DQVSGYNVWFGT had a protein stability index of 0.698 ± 0.028.

In the case of DRAPPPPRSSPL, the protein stability index came to 0.733 ± 0.076.

Take DRLGADCPLLSG: the protein stability index came out at 0.734 ± 0.028.

The sequence DRLTLEKKGRGM returned a protein stability index of 0.684 ± 0.016.

In the case of DRPNIGIKPKRA, the protein stability index is 0.613 ± 0.086.

Sequence DRPYPTTFRSSR registered a protein stability index of 0.66 ± 0.017.

DRRTLSLDLCGS came in with a protein stability index of 0.644 ± 0.045.

Take DRSMRPISKRWE: the protein stability index was 0.668 ± 0.037.

Sequence DRSTGVNKSFPS had a protein stability index of 0.7 ± 0.074.

DRSTIKIAIHRQ registered a protein stability index of 0.656 ± 0.056.

Sequence DRVHVSNGYLEF gave a protein stability index of 0.684 ± 0.1.

DRVRGLCIPNGP had a protein stability index of 0.681 ± 0.043.

Consider DSIVWVGVTYFL, for which the protein stability index was 0.553 ± 0.012.

With DSLSVSLSLVRG, the protein stability index worked out at 0.696 ± 0.028.

In turn, DSPLSHPPSPAP yielded a protein stability index of 0.6235 ± 0.0019.

For DSPPHPPPASAP, the protein stability index was determined as 0.714 ± 0.017.

As for DSRRDYLHLVFT, the protein stability index came to 0.646 ± 0.023.

The sequence DSSEGRVRIRIR returned a protein stability index of 0.714 ± 0.063.

Turning to DSSFPKSVSKQA, the protein stability index was determined as 0.679 ± 0.024.

Sequence DSSLDWGREARA registered a protein stability index of 0.649 ± 0.075.

The sequence DSTWGLGLFSVP yielded a protein stability index of 0.64 ± 0.033.
